Data reported in patent US20260209293A1 (Novo Nordisk, published 2026).
*1 amine or outer side, *2 acyl side, *3 side chain or, on linkers, in order; H or OH if unused. The star is where a group is joined. C18 diacid = O=C(O)CCCCCCCCCCCCCCCCC(=O)*; γGlu = O=C(O)[C@H](CCC(=O)[*:2])N[*:1]

T1: human calcitonin receptor (a) (human, UniProt P30988 25-474)
T1 sequence (looked up): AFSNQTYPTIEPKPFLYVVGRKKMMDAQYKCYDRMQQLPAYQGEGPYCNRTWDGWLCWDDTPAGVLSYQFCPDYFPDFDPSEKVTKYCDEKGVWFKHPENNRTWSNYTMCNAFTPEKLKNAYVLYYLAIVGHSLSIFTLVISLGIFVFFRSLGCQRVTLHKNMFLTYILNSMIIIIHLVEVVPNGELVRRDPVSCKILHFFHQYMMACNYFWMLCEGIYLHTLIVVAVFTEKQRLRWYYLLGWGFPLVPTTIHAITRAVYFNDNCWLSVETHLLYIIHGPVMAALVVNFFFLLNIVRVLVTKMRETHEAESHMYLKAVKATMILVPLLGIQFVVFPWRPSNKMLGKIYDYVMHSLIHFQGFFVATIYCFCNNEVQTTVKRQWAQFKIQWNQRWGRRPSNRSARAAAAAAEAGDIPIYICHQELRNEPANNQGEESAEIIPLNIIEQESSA

T2: human amylin-3(a) receptor (human, UniProt P30988 25-474; O60896 24-148)
T2 sequence (looked up) 1: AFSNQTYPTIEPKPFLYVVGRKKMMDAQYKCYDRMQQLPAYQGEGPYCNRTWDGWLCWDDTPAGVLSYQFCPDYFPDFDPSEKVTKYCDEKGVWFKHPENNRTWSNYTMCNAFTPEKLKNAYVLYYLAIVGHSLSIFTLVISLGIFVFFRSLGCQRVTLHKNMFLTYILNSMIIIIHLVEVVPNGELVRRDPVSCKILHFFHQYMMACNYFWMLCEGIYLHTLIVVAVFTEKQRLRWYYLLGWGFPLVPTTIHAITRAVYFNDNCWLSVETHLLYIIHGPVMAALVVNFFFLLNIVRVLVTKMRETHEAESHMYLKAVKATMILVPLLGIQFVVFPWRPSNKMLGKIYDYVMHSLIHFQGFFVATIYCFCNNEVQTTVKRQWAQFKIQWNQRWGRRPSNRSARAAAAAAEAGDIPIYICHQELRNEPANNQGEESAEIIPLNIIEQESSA
T2 sequence (looked up) 2: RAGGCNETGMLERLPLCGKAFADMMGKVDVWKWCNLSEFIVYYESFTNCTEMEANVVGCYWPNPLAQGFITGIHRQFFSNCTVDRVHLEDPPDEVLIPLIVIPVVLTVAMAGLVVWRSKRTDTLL


Legend:
[1] = molecular target: T1, human calcitonin receptor (a); assay: cell-based or functional assay
[2] = molecular target: T2, human amylin-3(a) receptor; assay: cell-based or functional assay

Row | hCalcR potency, EC50 (pM); CRE-luciferase reporter in BHK cells [1] [pM] | hAmyR3 potency, EC50 (pM); CRE-luciferase reporter in BHK cells [2] [pM] | Binder
1 | 1.99 | 1.88 | {C18 diacid-γGlu}-ASNLATAQTQRLAEFLHHSSDPFGAIPSSTDVGPDTP-NH2 (SMILES CC[C@H](C)[C@H](NC(=O)[C@H](C)NC(=O)CNC(=O)[C@H](Cc1ccccc1)NC(=O)[C@@H]1CCCN1C(=O)[C@H](CC(=O)O)NC(=O)[C@H](CO)NC(=O)[C@H](CO)NC(=O)[C@H](Cc1c[nH]cn1)NC(=O)[C@H](Cc1c[nH]cn1)NC(=O)[C@H](CC(C)C)NC(=O)[C@H](Cc1ccccc1)NC(=O)[C@H](CCC(=O)O)NC(=O)[C@H](C)NC(=O)[C@H](CC(C)C)NC(=O)[C@H](CCCNC(=N)N)NC(=O)[C@H](CCC(N)=O)NC(=O)[C@@H](NC(=O)[C@H](CCC(N)=O)NC(=O)[C@H](C)NC(=O)[C@@H](NC(=O)[C@H](C)NC(=O)[C@H](CC(C)C)NC(=O)[C@H](CC(N)=O)NC(=O)[C@H](CO)NC(=O)[C@H](C)NC(=O)CC[C@H](NC(=O)CCCCCCCCCCCCCCCCC(=O)O)C(=O)O)[C@@H](C)O)[C@@H](C)O)C(=O)N1CCC[C@H]1C(=O)N[C@@H](CO)C(=O)N[C@@H](CO)C(=O)N[C@H](C(=O)N[C@@H](CC(=O)O)C(=O)N[C@H](C(=O)NCC(=O)N1CCC[C@H]1C(=O)N[C@@H](CC(=O)O)C(=O)N[C@H](C(=O)N1CCC[C@H]1C(N)=O)[C@@H](C)O)C(C)C)[C@@H](C)O)
2 | 1.01 | 0.81 | {C18 diacid-γGlu}-AGSLSTAQTARLAEFLHHFGPILPPTDVGSETP-NH2 (SMILES CC[C@H](C)[C@H](NC(=O)[C@@H]1CCCN1C(=O)CNC(=O)[C@H](Cc1ccccc1)NC(=O)[C@H](Cc1c[nH]cn1)NC(=O)[C@H](Cc1c[nH]cn1)NC(=O)[C@H](CC(C)C)NC(=O)[C@H](Cc1ccccc1)NC(=O)[C@H](CCC(=O)O)NC(=O)[C@H](C)NC(=O)[C@H](CC(C)C)NC(=O)[C@H](CCCNC(=N)N)NC(=O)[C@H](C)NC(=O)[C@@H](NC(=O)[C@H](CCC(N)=O)NC(=O)[C@H](C)NC(=O)[C@@H](NC(=O)[C@H](CO)NC(=O)[C@H](CC(C)C)NC(=O)[C@H](CO)NC(=O)CNC(=O)[C@H](C)NC(=O)CC[C@H](NC(=O)CCCCCCCCCCCCCCCCC(=O)O)C(=O)O)[C@@H](C)O)[C@@H](C)O)C(=O)N[C@@H](CC(C)C)C(=O)N1CCC[C@H]1C(=O)N1CCC[C@H]1C(=O)N[C@H](C(=O)N[C@@H](CC(=O)O)C(=O)N[C@H](C(=O)NCC(=O)N[C@@H](CO)C(=O)N[C@@H](CCC(=O)O)C(=O)N[C@H](C(=O)N1CCC[C@H]1C(N)=O)[C@@H](C)O)C(C)C)[C@@H](C)O)
3 | 1.63 | 1.28 | {C18 diacid-γGlu}-ASHLSTAQTARLAEFLHHSSDNFGPILPPTDVGSNTP-NH2 (SMILES CC[C@H](C)[C@H](NC(=O)[C@@H]1CCCN1C(=O)CNC(=O)[C@H](Cc1ccccc1)NC(=O)[C@H](CC(N)=O)NC(=O)[C@H](CC(=O)O)NC(=O)[C@H](CO)NC(=O)[C@H](CO)NC(=O)[C@H](Cc1c[nH]cn1)NC(=O)[C@H](Cc1c[nH]cn1)NC(=O)[C@H](CC(C)C)NC(=O)[C@H](Cc1ccccc1)NC(=O)[C@H](CCC(=O)O)NC(=O)[C@H](C)NC(=O)[C@H](CC(C)C)NC(=O)[C@H](CCCNC(=N)N)NC(=O)[C@H](C)NC(=O)[C@@H](NC(=O)[C@H](CCC(N)=O)NC(=O)[C@H](C)NC(=O)[C@@H](NC(=O)[C@H](CO)NC(=O)[C@H](CC(C)C)NC(=O)[C@H](Cc1c[nH]cn1)NC(=O)[C@H](CO)NC(=O)[C@H](C)NC(=O)CC[C@H](NC(=O)CCCCCCCCCCCCCCCCC(=O)O)C(=O)O)[C@@H](C)O)[C@@H](C)O)C(=O)N[C@@H](CC(C)C)C(=O)N1CCC[C@H]1C(=O)N1CCC[C@H]1C(=O)N[C@H](C(=O)N[C@@H](CC(=O)O)C(=O)N[C@H](C(=O)NCC(=O)N[C@@H](CO)C(=O)N[C@@H](CC(N)=O)C(=O)N[C@H](C(=O)N1CCC[C@H]1C(N)=O)[C@@H](C)O)C(C)C)[C@@H](C)O)

More lines, now with the values behind:

Row | Binder | hCalcR potency, EC50 (pM); CRE-luciferase reporter in BHK cells [1] [pM] | hAmyR3 potency, EC50 (pM); CRE-luciferase reporter in BHK cells [2] [pM]
4 | {C18 diacid-γGlu}-AGELSTAQTQRLAEFLHHSSDPFGAIPSSTDVGPDTP-NH2 (SMILES CC[C@H](C)[C@H](NC(=O)[C@H](C)NC(=O)CNC(=O)[C@H](Cc1ccccc1)NC(=O)[C@@H]1CCCN1C(=O)[C@H](CC(=O)O)NC(=O)[C@H](CO)NC(=O)[C@H](CO)NC(=O)[C@H](Cc1c[nH]cn1)NC(=O)[C@H](Cc1c[nH]cn1)NC(=O)[C@H](CC(C)C)NC(=O)[C@H](Cc1ccccc1)NC(=O)[C@H](CCC(=O)O)NC(=O)[C@H](C)NC(=O)[C@H](CC(C)C)NC(=O)[C@H](CCCNC(=N)N)NC(=O)[C@H](CCC(N)=O)NC(=O)[C@@H](NC(=O)[C@H](CCC(N)=O)NC(=O)[C@H](C)NC(=O)[C@@H](NC(=O)[C@H](CO)NC(=O)[C@H](CC(C)C)NC(=O)[C@H](CCC(=O)O)NC(=O)CNC(=O)[C@H](C)NC(=O)CC[C@H](NC(=O)CCCCCCCCCCCCCCCCC(=O)O)C(=O)O)[C@@H](C)O)[C@@H](C)O)C(=O)N1CCC[C@H]1C(=O)N[C@@H](CO)C(=O)N[C@@H](CO)C(=O)N[C@H](C(=O)N[C@@H](CC(=O)O)C(=O)N[C@H](C(=O)NCC(=O)N1CCC[C@H]1C(=O)N[C@@H](CC(=O)O)C(=O)N[C@H](C(=O)N1CCC[C@H]1C(N)=O)[C@@H](C)O)C(C)C)[C@@H](C)O) | 1.58 | 2.43
5 | {C18 diacid-γGlu}-AGSLSTAQTARLAEFLHHSSDNFGPILPPTDVGSNTP-NH2 (SMILES CC[C@H](C)[C@H](NC(=O)[C@@H]1CCCN1C(=O)CNC(=O)[C@H](Cc1ccccc1)NC(=O)[C@H](CC(N)=O)NC(=O)[C@H](CC(=O)O)NC(=O)[C@H](CO)NC(=O)[C@H](CO)NC(=O)[C@H](Cc1c[nH]cn1)NC(=O)[C@H](Cc1c[nH]cn1)NC(=O)[C@H](CC(C)C)NC(=O)[C@H](Cc1ccccc1)NC(=O)[C@H](CCC(=O)O)NC(=O)[C@H](C)NC(=O)[C@H](CC(C)C)NC(=O)[C@H](CCCNC(=N)N)NC(=O)[C@H](C)NC(=O)[C@@H](NC(=O)[C@H](CCC(N)=O)NC(=O)[C@H](C)NC(=O)[C@@H](NC(=O)[C@H](CO)NC(=O)[C@H](CC(C)C)NC(=O)[C@H](CO)NC(=O)CNC(=O)[C@H](C)NC(=O)CC[C@H](NC(=O)CCCCCCCCCCCCCCCCC(=O)O)C(=O)O)[C@@H](C)O)[C@@H](C)O)C(=O)N[C@@H](CC(C)C)C(=O)N1CCC[C@H]1C(=O)N1CCC[C@H]1C(=O)N[C@H](C(=O)N[C@@H](CC(=O)O)C(=O)N[C@H](C(=O)NCC(=O)N[C@@H](CO)C(=O)N[C@@H](CC(N)=O)C(=O)N[C@H](C(=O)N1CCC[C@H]1C(N)=O)[C@@H](C)O)C(C)C)[C@@H](C)O) | 1.58 | 1.36
